Drawing on patent publication US20250313605A1, this text covers cAMP EC50 (0.1% casein), cAMP EC50 (FBS and BSA present) and Ki for two molecules.

The target of assay [1] is T1, human GIP receptor (human), P48546.
T1 chain: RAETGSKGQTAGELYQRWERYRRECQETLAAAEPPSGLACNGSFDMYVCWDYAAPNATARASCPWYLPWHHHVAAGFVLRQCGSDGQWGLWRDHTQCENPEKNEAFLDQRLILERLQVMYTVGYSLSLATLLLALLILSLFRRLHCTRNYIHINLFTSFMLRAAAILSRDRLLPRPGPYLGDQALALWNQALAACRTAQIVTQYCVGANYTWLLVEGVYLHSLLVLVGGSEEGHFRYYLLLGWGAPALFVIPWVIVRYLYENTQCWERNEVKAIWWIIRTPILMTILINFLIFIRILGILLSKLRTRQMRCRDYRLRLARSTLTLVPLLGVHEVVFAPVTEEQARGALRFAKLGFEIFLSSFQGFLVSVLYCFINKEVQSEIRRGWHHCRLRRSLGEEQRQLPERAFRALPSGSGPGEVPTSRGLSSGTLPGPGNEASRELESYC
The experiment in a line: cell-based or functional assay.

Assay [2] deals with T2, human GLP-1 receptor (human), P43220.
T2 chain: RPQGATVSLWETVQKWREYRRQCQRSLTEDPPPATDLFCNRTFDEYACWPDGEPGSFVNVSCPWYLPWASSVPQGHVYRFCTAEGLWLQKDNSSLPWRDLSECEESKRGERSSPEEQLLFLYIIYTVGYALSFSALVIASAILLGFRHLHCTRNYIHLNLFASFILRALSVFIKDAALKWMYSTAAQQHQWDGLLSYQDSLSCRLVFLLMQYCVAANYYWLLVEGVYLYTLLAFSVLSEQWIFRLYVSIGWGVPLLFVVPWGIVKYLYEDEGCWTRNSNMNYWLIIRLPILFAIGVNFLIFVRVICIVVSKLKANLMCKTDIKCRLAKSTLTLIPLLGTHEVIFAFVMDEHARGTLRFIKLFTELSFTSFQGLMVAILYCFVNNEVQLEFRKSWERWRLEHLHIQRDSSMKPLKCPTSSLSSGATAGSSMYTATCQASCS
The experiment in a line: cell-based or functional assay.

Assay [3] addresses human glucagon receptor (human), P47871. The experiment in a line: cell-based or functional assay.
Assay [4] has as its target T1, human GIP receptor (human), P48546. The experiment in a line: radioligand competition SPA, HEK293 membranes. On the technique in general: Displacement assays read how much labelled ligand stays bound in the presence of the test substance.
The target of assay [5] is T2, human GLP-1 receptor (human), P43220. The experiment in a line: radioligand competition SPA, HEK293 membranes.
The target in assay [6] is human glucagon receptor (human), P47871. Kind of assay: radioligand competition SPA, HEK293 membranes.

*1 amine or outer side, *2 acyl side, *3 side chain or, on linkers, in order; H or OH if unused. Where no end group is shown, it is not given here. Side-chain parts run from the residue outwards. [ ]: non-standard residue; d: D form. The star is where a group is joined. C20 diacid = O=C(O)CCCCCCCCCCCCCCCCCCC(=O)*; γGlu = O=C(O)[C@H](CCC(=O)[*:2])N[*:1]; AEEA = NCCOCCOCC(=O)O; Aib = CC(C)(N)C(=O)O

Chain of human glucagon receptor (human), P47871 (P47871 26-477): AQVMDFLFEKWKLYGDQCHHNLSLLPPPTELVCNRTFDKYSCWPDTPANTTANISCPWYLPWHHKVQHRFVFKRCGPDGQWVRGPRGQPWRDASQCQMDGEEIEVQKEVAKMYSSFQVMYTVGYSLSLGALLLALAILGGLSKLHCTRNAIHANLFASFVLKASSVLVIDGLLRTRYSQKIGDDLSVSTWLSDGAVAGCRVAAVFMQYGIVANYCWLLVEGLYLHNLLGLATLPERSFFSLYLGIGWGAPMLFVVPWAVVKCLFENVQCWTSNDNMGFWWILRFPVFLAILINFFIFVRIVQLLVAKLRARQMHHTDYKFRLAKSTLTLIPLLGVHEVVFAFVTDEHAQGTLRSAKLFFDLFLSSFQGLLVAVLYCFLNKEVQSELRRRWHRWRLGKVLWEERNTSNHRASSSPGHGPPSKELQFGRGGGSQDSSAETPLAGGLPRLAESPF

B1: Example 17 (peptide)
peptide: Y[Aib]QGTFTSDYSILLDKK([AEEA-AEEA-γGlu-C20 diacid])AQ[Aib]AFIEYLLE[Aib]GPSSGAPPPS-NH2
modifications: N-terminus assumed
SMILES: CC[C@H](C)[C@H](NC(=O)[C@H](Cc1ccccc1)NC(=O)[C@H](C)NC(=O)C(C)(C)NC(=O)[C@H](CCC(N)=O)NC(=O)[C@H](C)NC(=O)[C@H](CCCCNC(=O)COCCOCCNC(=O)COCCOCCNC(=O)CC[C@H](NC(=O)CCCCCCCCCCCCCCCCCCC(=O)O)C(=O)O)NC(=O)[C@H](CCCCN)NC(=O)[C@H](CC(=O)O)NC(=O)[C@H](CC(C)C)NC(=O)[C@H](CC(C)C)NC(=O)[C@@H](NC(=O)[C@H](CO)NC(=O)[C@H](Cc1ccc(O)cc1)NC(=O)[C@H](CC(=O)O)NC(=O)[C@H](CO)NC(=O)[C@@H](NC(=O)[C@H](Cc1ccccc1)NC(=O)[C@@H](NC(=O)CNC(=O)[C@H](CCC(N)=O)NC(=O)C(C)(C)NC(=O)[C@@H](N)Cc1ccc(O)cc1)[C@@H](C)O)[C@@H](C)O)[C@@H](C)CC)C(=O)N[C@@H](CCC(=O)O)C(=O)N[C@@H](Cc1ccc(O)cc1)C(=O)N[C@@H](CC(C)C)C(=O)N[C@@H](CC(C)C)C(=O)N[C@@H](CCC(=O)O)C(=O)NC(C)(C)C(=O)NCC(=O)N1CCC[C@H]1C(=O)N[C@@H](CO)C(=O)N[C@@H](CO)C(=O)NCC(=O)N[C@@H](C)C(=O)N1CCC[C@H]1C(=O)N1CCC[C@H]1C(=O)N1CCC[C@H]1C(=O)N[C@@H](CO)C(N)=O
Regarding B1, the cAMP EC50 (0.1% casein) came out at 0.0439 nM in assay [1], 0.153 nM in assay [2] and 0.135 nM in assay [3]. For the same molecule, the cAMP EC50 (FBS and BSA present) in assay [1] is 2.38 nM; in assay [2], 18.4 nM; in assay [3], 8.05 nM. The Ki came out at 0.0895 nM in assay [4], 10.2 nM in assay [5] and 5.81 nM in assay [6].
For Y[Aib]QGTFTSDYSILLDKK([AEEA-γGlu-C20 diacid])AQ[Aib]AFIEYLLEGGPSSGAPPPS-NH2 [Example 18], the cAMP EC50 (0.1% casein) in assay [1] was found to be 0.123 nM; in assay [2], 0.141 nM; in assay [3], 0.0861 nM. Also, the cAMP EC50 (FBS and BSA present) was found to be 5.89 nM in assay [1], 16.1 nM in assay [2] and 5.71 nM in assay [3]. In addition, the Ki in assay [4] was found to be 0.0835 nM; in assay [5], 8.06 nM; in assay [6], 5.71 nM.

Broadly, the Ki is the dissociation constant of the complex between target and ligand, obtained from inhibition or displacement. Lower therefore signals higher affinity.
